Data set [1] can be described thus: CHX chase, 4F2hc remaining by western blot. (A western blot detects proteins with antibodies after separation by electrophoresis.)
A short description of data set [2]: Flow cytometry, shSLC3A2 MIA PaCa-2. To be noted: glycan lost; control: WT 4F2hc reconstitution in shSLC3A2 MIA PaCa-2.
Data set [3] in a line: Western blot, shSLC3A2 PANC-1. To be noted: glycan lost.
Data set [4] in a line: Confocal: 4F2hc membrane expression, colocalization with xCT. The note with it: glycan lost; control: WT 4F2hc reconstitution.
Data set [5] is described as follows: Confocal and flow cytometry, PANC-1. To be noted: glycan lost; control: no PNGase F. On the technique in general: A flow cytometer gives signals particle by particle.
The nature of data set [6]: Confocal: membrane colocalization of 4F2hc and xCT. The note with it: glycan lost; control: no tunicamycin.
The nature of data set [7]: Western blot, PANC-1, BxPC-3, MIA PaCa-2. To be noted: glycan changed form; control: Cas9Control cells.

B1: 4F2hc (CD98hc): N365Q (protein)
parent chain: MELQPPEASIAVVSIPRQLPGSHSEAGVQGLSAGDDSELGSHCVAQTGLELLASGDPLPSASQNAEMIETGSDCVTQAGLQLLASSDPPALASKNAEVTGTMSQDTEVDMKEVELNELEPEKQPMNAASGAAMSLAGAEKNGLVKIKVAEDEAEAAAAAKFTGLSKEELLKVAGSPGWVRTRWALLLLFWLGWLGMLAGAVVIIVRAPRCRELPAQKWWHTGALYRIGDLQAFQGHGAGNLAGLKGRLDYLSSLKVKGLVLGPIHKNQKDDVAQTDLLQIDPNFGSKEDFDSLLQSAKKKSIRVILDLTPNYRGENSWFSTQVDTVATKVKDALEFWLQAGVDGFQVRDIENLKDASSFLAEWQNITKGFSEDRLLIAGTNSSDLQQILSLLESNKDLLLTSSYLSDSGSTGEHTKSLVTQYLNATGNRWCSWSLSQARLLTSFLPAQLLRLYQLMLFTLPGTPVFSYGDEIGLDAAALPGQPMEAPVMLWDESSFPDIPGAVSANMTVKGQSEDPGSLLSLFRRLSDQRSKERSLLHGDFHAFSAGPGLFSYIRHWDQNERFLVVLNFGDVGLSAGLQASDLPASASLPAKADLLLSTQPGREEGSPLELERLKLEPHEGLLLRFPYAA
Regarding B1, the degradation_or_half_life result in data set [1] (glycan lost) is given as “decreases”. Further, in data set [2], the “other: membrane expression of partner xCT” value is on record as “decreases”. Moreover, in data set [3], the “other: protein levels of xCT, GPX4, B3GNT3” value is on record as “decreases”. The localisation_or_trafficking entry in data set [4] is listed as “decreases”.

B2: 4F2hc (CD98hc): PNGase F (protein)
parent chain: B1 parent chain
As for B2, in data set [5], the localisation_or_trafficking entry is reported as “abolishes”.

B3: 4F2hc (CD98hc): tunicamycin (TM) (protein)
parent chain: B1 parent chain
For the protein B3, the degradation_or_half_life result in data set [1] (glycan lost, control: no tunicamycin) is given as “decreases”. Further, the localisation_or_trafficking result in data set [6] is “decreases”.

B4: 4F2hc (CD98hc): B3GNT3KO (protein)
parent chain: B1 parent chain
In the case of B4, the degradation_or_half_life result in data set [1] (glycan changed form, control: Cas9Control cells) is “decreases”. Further, the expression_or_secretion result in data set [7] is listed as “increases”.

B5: 4F2hc (CD98hc): 122-311del B3GNT3 (protein)
parent chain: B1 parent chain
Take B5: in data set [1] (glycan changed form, control: 122-311OE (active B3GNT3) in B3GNT3KO cells), the degradation_or_half_life entry is recorded as “decreases”.

B6: 4F2hc (CD98hc): 4NQ (protein)
parent chain: B1 parent chain
On to B6, for which the degradation_or_half_life result in data set [1] (glycan lost) is “decreases”. The “other: membrane expression of partner xCT” value in data set [2] was “decreases”. For the same protein, the “other: protein levels of xCT, GPX4, B3GNT3” value in data set [3] is “decreases”. In addition, the localisation_or_trafficking entry in data set [4] is “decreases”.

Values taken from publication PMC10406883.
